In data set [1] the target is T1, DdrA (DR0423) (Deinococcus radiodurans R1, UniProt Q9RX92 SEQ:1-208).
T1 sequence: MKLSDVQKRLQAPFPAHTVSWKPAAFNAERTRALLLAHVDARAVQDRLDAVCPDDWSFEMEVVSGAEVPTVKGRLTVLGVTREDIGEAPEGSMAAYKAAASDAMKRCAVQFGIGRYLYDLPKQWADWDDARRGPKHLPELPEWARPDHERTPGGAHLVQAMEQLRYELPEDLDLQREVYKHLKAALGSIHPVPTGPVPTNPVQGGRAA
The experiment in a line: EMSA; 4 uM DdrA; not disrupted by 1000-2000 fold excess of 5'-extension oligo. To be noted: tags: untagged, expressed in E. coli from pEAW298; chain copies: 8-10 subunit oligomer in solution by gel filtration (stated); label: 3'-32P ddATP; 18 bp hairpin with 16 nt 3' single-strand extension.
Procedure: Four sets of EMSA assays are presented, with the gels and electrophoresis conditions carefully matched. DNA substrate concentrations are 0.7 nM in each case, reported as total molecules. In each set, the first three lanes have show the effects of the indicated concentration of DdrA protein. […] In set D, the sixth and seventh lanes are identical to the third lane (with 4 μM DdrA protein), except that they have been challenged with a 1000-fold or 2000-fold excess of unlabeled oligo with a 5′ extension, respectively. The unlabeled challenge oligo is the same as that used in reaction set C. (FIG. 7A) Single-strand oligonucleotides (51 nucleotides in length), labelled on the 5′ end. (FIG. 7B) 5′ end-labeled duplex DNA fragments (51 bp). (FIG. 7C) 5′-end-labelled oligonucleotide, with a self-complementary sequence leading to the formation of an 18 bp hairpin and a 15 nucleotide 5′ single strand extension. (FIG. 7D) 3′ end-labelled oligonucleotide, with a self-complementary sequence leading to the formation of an 18 bp hairpin and a 16 nucleotide 3′ single strand extension. The sequences of the single strand extensions in the oligos used in sets C and D are matched, except that an extra adenosine residue has been added to the oligo used in set D during the labelling process.

Data set [2] addresses T1, DdrA (DR0423). Nature of the data set: FP; KD,app; 1.0 nM DNA, 30 C, 30 min. The settings on record: tags: untagged, expressed in E. coli from pEAW298; chain copies: 8-10 subunit oligomer in solution by gel filtration (stated); label: 3' fluorescent tag. The protocol: FIG. 9 is a graph of fluorescence anisotropy data for DdrA binding to single-stranded DNA. Increasing concentrations of DdrA protein were incubated with 3′-fluorescently tagged DNA (1.0 nM) at 30° C. for 30 minutes. Samples were analyzed using the Beacons 2000 Fluorescence Polarization System and a curve was generated suing CURVE EXPERT 1.3 software. The K_{D,app} for each substrate is the concentration of DdrA when 50% of the DNA is bound as determined by the generated curve fit.
(In general: In gel filtration, larger molecules generally elute earlier.)

Our source for the binding result and Kd values is patent US20060024698, “Method to protect DNA ends” (published 2006).

B1: hairpin with 3' extension (oligo A) (structured_DNA)
DNA: TTAACGACCGTCGACCTGCAGGTCGACGGTCGTTAACGTCTCTCAGATTGT
modifications: 3'-terminal ddA added
B1: the binding result with DdrA (DR0423) [1] was “binds”.

Consider GGCCTCGCGGTAGCTGAGCTCGGAGCGCACGATTCGCACTGCTGATGTTC (ssDNA) [50 nt ssDNA], for which, in the data set with DdrA (DR0423) [2], the Kd came to 118 nM. As to GCGTGGGTAATTGTGCTTCAATGGACTGAC (ssDNA) [30 nt ssDNA], the Kd with DdrA (DR0423) [2] was 406 nM. As to AAGCACAATTACCCACGC (ssDNA) [18 nt ssDNA], the Kd with DdrA (DR0423) [2] amounted to 640 nM.
